US10449259B2, “Enzyme-responsive peptide nanofiber compositions and uses thereof” (Cornell University, priority 2015, dated 2019)
Primed or numbered codes have the meaning given here. *: point of attachment. mPEG2000 = methoxypolyethylene glycol polymer of 2 kDa, conjugated at the peptide N-terminus; FITC = O=C1OC2(c3ccc(O)cc3Oc3cc(O)ccc32)c2ccc(NC(=S)*)cc21; FITC′ = fluorescein isothiocyanate label; mPEG2000(3) = 2 kDa mPEG at N-terminus; Cy5.5 = Cy5.5 fluorophore

Tests used:
MDA-MB-468 tumors = assay: In vivo fluorescence monitoring of distribution after tail vein injection, MDA-MB-468 tumors; set-up: species or system nude mice; details: 0.5 nmol of fluorophore content, 48 hours post-injection
Procedure: Similar results were observed when the animals were injected with GSH-NFP nanofibers having a homogenous length of 400 nm. FIGS. 16A and 16B (white arrows).

[1] = test system: triple-negative breast cancer MDA-MB-231 cells; assay: CellTiter-Glo luminescent cell viability (cytotoxicity) assay, MDA-MB-231; format: cell-based, human; details: for IC50: 5 days of incubation, concentration according to DM1 content, mean ± SD, triplicate; for toxicity of naked nanofibers: below a concentration of 1 μM
Procedure: (§1) The cytotoxicity of drug-loaded NFP1 and NFP2 nanofibers was assessed using the CellTiter-Glo Luminescent Cell Viability Assay (Promega, Madison, Wis.) as previously described in Junttila et al., Breast Cancer Res. Treat. 128 (2), 347-356 (2011). Briefly, cells were seeded on a 96-well plate (2×10^3/well for MDA-MB-231 and MDA-MB-468 and 2×10^4/well for BT474) and were allowed to stabilize overnight. […] After 5 days of incubation, CellTiter-Glo reagent (100 μL) was added to each well. The generated oxyluciferin was quantified for emitted luminescence using a microplate reader (Tecan US Inc., Morrisville, N.C.). All experiments were performed in triplicate, and the results were presented as mean±standard deviation. Statistical analyses were performed using Graph Pad Prism 6.0 software. All data were normalized to the values obtained with the untreated control cells, and half maximal inhibitory concentrations (IC50) were calculated by fitting the obtained data to a sigmoidal curve.
(§2) The cytotoxicity of the DM1-loaded nanofibers was evaluated using various human HER2-positive breast cancer (BT474) and triple-negative breast cancer (MDA-MB-231 and MDA-MB-468) cell lines as ex vivo models. A luminescent cell viability assay was employed to determine the cell viability through quantification of the adenosine triphosphate (ATP) produced by metabolically active cells. This assay offered more accurate and reproducible results compared to the widely used MTS assay (data not shown). Because the cell killing of DM1 is slow, the assays were performed following the incubation of the tested samples for 5 days, as previously described in Junttila et al., Breast Cancer Res. Treat. 128 (2), 347-356 (2011).

[2] = test system: HER2-positive breast cancer (BT474) cells; assay: CellTiter-Glo luminescent cell viability (cytotoxicity) assay, BT474; format: cell-based, human; details: 5 days of incubation, concentration according to DM1 content, mean ± SD, triplicate
Procedure: Briefly, cells were seeded on a 96-well plate (2×10^3/well for MDA-MB-231 and MDA-MB-468 and 2×10^4/well for BT474) and were allowed to stabilize overnight. […] After 5 days of incubation, CellTiter-Glo reagent (100 μL) was added to each well. The generated oxyluciferin was quantified for emitted luminescence using a microplate reader (Tecan US Inc., Morrisville, N.C.). […] Statistical analyses were performed using Graph Pad Prism 6.0 software. All data were normalized to the values obtained with the untreated control cells, and half maximal inhibitory concentrations (IC50) were calculated by fitting the obtained data to a sigmoidal curve.
The cytotoxicity of the DM1-loaded nanofibers was evaluated using various human HER2-positive breast cancer (BT474) and triple-negative breast cancer (MDA-MB-231 and MDA-MB-468) cell lines as ex vivo models. A luminescent cell viability assay was employed to determine the cell viability through quantification of the adenosine triphosphate (ATP) produced by metabolically active cells. […] Because the cell killing of DM1 is slow, the assays were performed following the incubation of the tested samples for 5 days, as previously described in Junttila et al., Breast Cancer Res. Treat.

[3] = test system: triple-negative breast cancer MDA-MB-468 cells; assay: CellTiter-Glo luminescent cell viability (cytotoxicity) assay, MDA-MB-468; format: cell-based, human; details: for IC50: 5 days of incubation, concentration according to DM1 content, mean ± SD, triplicate; for toxicity of naked nanofibers: below a concentration of 1 μM
Procedure: as §1, §2

[4] = target: T1, CathB (purified from bovine spleen) (Bos taurus, UniProt P07688); assay: Enzyme digestion study with CathB (HPLC, MALDI-TOF, TEM, fluorescence); format: biochemical; details: for CathB digestion, peptide fragments by HPLC: 50 μM peptide content, sodium acetate buffer pH 4, 24 hours; for CathB digestion, peptide fragments by HPLC / fluorescence change of quenched nanofibers after CathB digestion: CathB 0.3 U; for morphological change in response to CathB digestion (TEM): 24 hour incubation with the enzyme; for fluorescence change of quenched nanofibers after CathB digestion: 0.1 μM peptide content, pH 4, 24 hours
T1 construct: CathB (purified from bovine spleen); purchased EMD Millipore (Billerica, Mass.); host or cells: bovine spleen (tissue-purified)
Procedure: NFP1 and NFP2 nanofibers (50 μM of peptide content) were incubated with CathB (0.3 U) in sodium acetate buffer (50 μM; pH 4). Nanofibers incubated with buffer only were used as the negative controls. After 24 hours, the samples were taken out for TEM, rp-HPLC, and MALDI-TOF analysis.
Intact or digested NFP1 and NFP2 nanofibers (10 μM of peptide content) in buffer (20 μL) were transferred onto Formvar/carbon-coated 400 mesh copper grids (Electron Microscopy Sciences, Hatfield, Pa.). Excess nanofibers were blotted off using filter paper and the samples were stained with 0.5% (v/v) uranyl formate solution (20 μL). After drying at room temperature, the grids were examined under TEM (JEOL JEM-1400 LaB6 TEM operating at 120 Kv).

Q: How did the “tumoral uptake relative to Cy5.5” value (MDA-MB-468 tumors) turn out when `Cn1cnc(N)c2ncnc1-2` [3MA] was run?
A: increased tumoral uptake

Q: For `COc1cc2cc(c1Cl)N(C)C(=O)C[C@H](OC(=O)[C@H](C)N(C)C(=O)CCS)[C@]1(C)O[C@H]1[C@H](C)[C@@H]1C[C@@](O)(NC(=O)O1)[C@H](OC)/C=C/C=C(\C)C2` [DM1, N2′-deacetyl-N2′-(3-mercapto-1-oxopropyl)-maytansine, reference compound], which IC50 [1] is on record?
A: 35.4 ± 4.2 nM

Q: And the IC50 [2]?
A: 68.1 ± 5 nM

Q: What about the IC50 [3] of the same molecule?
A: 21.9 ± 4.1 nM

Q: Which results are given for “FITC-NFP1: mPEG2000, hexalysine motif, self-assembling domain KLDLKLDLKLDLK and FITC fluorophore (mPEG2000-KKKKKKKLDLKLDLKLDLK(FITC)-NH2; not fully specified)”?
A: CathB digestion, peptide fragments by HPLC [4]: multiple peptide fragments; morphological change in response to CathB digestion (TEM) [4]: disintegrated and became shorter in length

Q: Which “CathB digestion, peptide fragments by HPLC” value [4] does the source give for “FITC-NFP2: mPEG2000, self-assembling domain KLDLKLDLKLDLK and FITC fluorophore (mPEG2000-KLDLKLDLKLDLK(FITC)-NH2; not fully specified)” here?
A: only one fragment

Q: And the “morphological change in response to CathB digestion (TEM)” value [4]?
A: assembled into an interfibril network

Q: What does the source list for “NFP1: naked nanofiber of mPEG peptides with hexalysine motif and self-assembling domain KLDLKLDLKLDLK (mPEG2000-KKKKKKKLDLKLDLKLDLK(FITC′)-NH2; not fully specified)”?
A: toxicity of naked nanofibers at high concentration ([1]; 10 μM): significant cell growth inhibition; toxicity of naked nanofibers [1]: nontoxic; sensitivity to CathB digestion ([4]; compared to NFP2): increased sensitivity to CathB digestion; toxicity of naked nanofibers at high concentration ([3]; 10 μM): significant cell growth inhibition; toxicity of naked nanofibers [3]: nontoxic

Q: How did the “toxicity of naked nanofibers” value [1] turn out when “NFP2: naked nanofiber of mPEG peptides with self-assembling domain KLDLKLDLKLDLK, no hexalysine motif (mPEG2000-KLDLKLDLKLDLK(FITC′)-NH2; also: mPEG, site not given here)” was run?
A: nontoxic

Q: And the “toxicity of naked nanofibers” value [3]?
A: nontoxic

Q: How did the IC50 [1] turn out when T-DM1 [reference compound] was run?
A: 68.9 ± 3.8 nM

Q: And the IC50 [3]?
A: 65.2 ± 4.4 nM

Q: Which “fluorescence change of quenched nanofibers after CathB digestion” value [4] does the source give for “mPEG2000 KLDLKLDLKLDLK-Cy5.5 ({mPEG2000(3)}-KLDLKLDLKLDLK-{Cy5.5}) [Cy5.5-NFP2, optically quenched nanofiber prepared using Cy5.5-conjugated peptide constructs only]” here?
A: only slightly increased

Q: With “mPEG2000-KKKKKKKLDLKLDLKLDLK-Cy5.5 (mPEG2000-KKKKKKKLDLKLDLKLDLK-{Cy5.5}) [Cy5.5-NFP1, optically quenched nanofiber prepared using Cy5.5-conjugated peptide constructs only]” as the molecule, how does the “fluorescence change of quenched nanofibers after CathB digestion” value [4] read?
A: recovery of the fluorescence signal
